This is an account of results in paper PMC6150290.

Common to all, as to test: EMSA
Common to all, as to settings: EMSA: 0.5 nM DNA duplex, 20 uL, 10 mM Tris-HCl pH 7.6, 5 mM DTT, 10% (component cut off in material), no NaCl; temperature not in material
A general note: In EMSA bound probe runs differently from free probe, usually more slowly.

Data set [1] relates to OGT (wild type) (Escherichia coli).
Data set [2] relates to S134P OGT (Escherichia coli).
The next data set has as its system C145S hAGT (human).

The term Kd denotes a measure of binding affinity in units of concentration. The low end stands for tighter binding, the high end for weaker binding. With Control (G-C), the figures for the Kd (in data set [1]; in data set [2]; in the data set with C145S hAGT (human)) were 1.23 µM, 0.86 µM and 10.6 µM, respectively.
